1 molecule from PMC11148020, “PPIA dictates NRF2 stability to promote lung cancer progression” (Nature Communications, 2024) can be followed below.

The target of the assay is T1, Recombinant PPIA protein (PPIA WT) (human, UniProt P62937 1-165, 15N-labeled in the NMR experiment).
T1 construct: peptidylprolyl isomerase A (PPIA, CypA), called full-length PPIA for the co-crystal; free in solution for crystal and NMR; also called full-length PPIA; 15N-labeled PPIA; source: E. coli BL21 (DE3), purified (Ni-NTA; for crystallization also Superdex 75 gel filtration)
Description: crystal structure; PPIA (50 mg/mL) incubated with PBM peptide (2 mM) at 4 °C for 2 h; hanging-drop co-crystallization, 25 mM Hepes, 25% PEG 3350, 5 mM TCEP, pH 7.5; 1.81 Å. The conditions noted are these: both partners purified.

T1 sequence (P62937 whole entry): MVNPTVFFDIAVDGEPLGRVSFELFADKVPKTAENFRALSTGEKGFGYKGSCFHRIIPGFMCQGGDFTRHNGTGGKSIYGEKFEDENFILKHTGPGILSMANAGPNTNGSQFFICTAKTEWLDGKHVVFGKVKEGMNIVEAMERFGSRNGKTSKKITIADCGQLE

B1: NRF2 fragment PPIA-Binding Motif (PBM) peptide (peptide)
peptide: VAQVAPVD
notes: NRF2 residues 169-176, in the linker between the Neh4 and Neh5 domains; also called NRF2-PBM; source: synthetic peptide
As to B1, the binding result was “binds”.
